The source of these data is US20230002492A1 (SIMCERE SHANGHAI PHARMACEUTICAL, published 2023).

As usually defined, the IC50 is the concentration needed to halve the response being measured. One may read the Kd as the equilibrium constant for the complex coming apart. What is called EC50 is the concentration at which the effect is half-maximal. By koff is commonly meant a measure of how fast the partners let go of each other. In general, kon refers to the second-order rate constant of association.

Experiment [1] concerns the target T1, recombinant human PD-L1 protein (Sino Biological, Cat. 10084-H05H) (human, UniProt Q9NZQ7 19-239).
T1 construct: also called PD-L1-mFc; human PD-L1 protein fused with mouse Fc
The experiment can be described thus: competitive ELISA: coated human PD-L1 protein, antibody titrated together with human PD-1-His, bound PD-1-His detected with HRP anti-His. How it is done: (§1) The recombinant human PD-L1 protein (Sino Biological, Cat. 10084-H05H) was diluted with carbonate buffer and added to a 96-well plate at a final concentration of […]. […] Then HRP-labeled anti-His tag antibody (MBL, Cat. D291-7) was added, and color development was performed with TMB. After termination with 1M sulfuric acid, OD values (dual wavelength 450 nm-630 nm) were read. The competitive binding curve of the test antibody can be drawn by matching the antibody concentration with the OD value to calculate the IC50 value.
In general terms: ELISA stands for enzyme-linked immunosorbent assay.

The target in experiment [2] is T2, recombinant human PD-L1-His (Novoprotein, Cat. 315) (human, UniProt Q9NZQ7 19-239).
T2 construct: Bought protein; also called human PD-L1 recombinant protein; human PDL1 protein; not shown: His tag
T2 sequence (Q9NZQ7 19-239 limits assumed): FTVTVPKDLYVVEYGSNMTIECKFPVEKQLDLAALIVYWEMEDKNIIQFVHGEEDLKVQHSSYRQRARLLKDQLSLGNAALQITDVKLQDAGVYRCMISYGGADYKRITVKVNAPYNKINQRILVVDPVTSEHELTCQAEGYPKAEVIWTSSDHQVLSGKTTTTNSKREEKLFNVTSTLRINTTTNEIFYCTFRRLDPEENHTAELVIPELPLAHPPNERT
The experiment can be described thus: SPR, Biacore T200, antibody captured, PD-L1-His injected, 1:1 model, 25 C. How it is done:
(§2) Biacore T200 (GE Healthcare) was used to determine binding affinity of the PD-L1 antibody to the human and cynomolgus monkey PD-L1-His proteins. Anti-human IgG Fc (Genway, Cat. GWB-20A705) was immobilized on CM5 chip (GE Healthcare, Cat. BR-1005-30) at 25° C. Anti-human Fc (Genway, Cat. GWB-20A705) was diluted to […] with Acetate pH5.0 (GE Healthcare, BR-1003-51). The Amine method in the Immobilization method was used to immobilize. Alternatively, a commercially available Protein A (GE Healthcare, Cat. 29127556) chip was used for detection. […] In each cycle, the antibody to be tested was captured on the fixed CM5 chip, then injected with recombinant human PD-L1-His (Novoprotein, Cat. 315) and cynomolgus monkey PD-L1-His protein (Sino Biological, Cat. 90251-CO8H), and finally regenerated with Glycine pH1.5. The mobile phase was HBS-EP+Buffer (GE Healthcare, Cat. BR-1006-69), the flow rate was 30 μL/min, and the binding time was 300 seconds. The regeneration flow rate was 30 μL/min and the time was 30 seconds. Using Biacore T200 evaluation software (version 3.0), a 1:1 binding model was used to analyze the experimental data, fit the equilibrium dissociation constant KD of the antibody and antigen, and determine the binding rate constant Ka and dissociation rate constant Kd.
For orientation: SPR reads the build-up and loss of mass on a sensor chip optically.

In experiment [3] the target is T3, cynomolgus monkey PD-L1-His protein (Sino Biological, Cat. 90251-CO8H) (cynomolgus monkey, UniProt G7PSE7 19-238).
T3 construct: Bought protein; also called cynomolgus monkey PD-L1 recombinant protein
T3 sequence (G7PSE7 entry or part of it limits assumed): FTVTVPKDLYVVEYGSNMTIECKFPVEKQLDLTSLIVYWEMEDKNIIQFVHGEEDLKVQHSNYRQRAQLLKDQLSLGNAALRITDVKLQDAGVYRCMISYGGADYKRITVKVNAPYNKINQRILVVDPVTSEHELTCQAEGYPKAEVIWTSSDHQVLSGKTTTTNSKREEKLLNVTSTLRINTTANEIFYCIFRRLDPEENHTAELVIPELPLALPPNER
The description is as above. On the procedure: as §2

Experiment [4] addresses T4, PD-L1 on the surface of CHO-PD-L1 cells (UniProt Q9NZQ7 19-290, limits assumed).
T4 construct: whole, on cells; also called CHO-PD-L1 cells (Nanjing Yongshan Biotechnology); CHO cell line (GenScript, Cat. M00613) stably transfected with PD-L1
Briefly: flow cytometry on CHO-PD-L1 cells, anti-human IgG PE, MFI fold, ng/ml is the unit of the concentration axis. How it is done:
(§3) A gradient concentration of antibodies to be detected (final concentration of antibody: 10000 ng/ml-0.1 ng/ml, 10-foldserial dilution) were incubated with CHO-PD-L1 cells (Nanjing Yongshan Biotechnology Co., Ltd., 10⁵ cells/well) with high expression of PD-L1 on the cell surface at 4° C. ° C. for 30min. After incubation, 1:250 diluted anti-human IgG PE fluorescent antibody (eBioscience, Cat. 12-4998-8) was added, and incubated at 4° C. for 30 min. The fluorescent antibody specifically bound to the Fc fragment of the antibody to be detected. The fluorescent intensity of PE was detected by FACS, and the ability of the antibody to be detected to bind to PD-L1 protein highly expressed on the cell surface was analyzed. […] MFI fold=MFI value of the experimental group/MFI value of the control group without drugs.
Background: A flow cytometer gives signals particle by particle.

Experiment [5] has as its target T4, PD-L1 on the surface of CHO-PD-L1 cells. The experiment can be described thus: flow cytometry on CHO-PD-L1 cells, anti-human IgG PE. How it is done: as §3
Experiment [6] deals with T2, recombinant human PD-L1-His …. The experiment can be described thus: SPR, Biacore T200, antibody captured, human PD-L1-His injected, 1:1 model, 25 C. How it is done:
as §2

Experiment [7] concerns the target T4, PD-L1 on the surface of CHO-PD-L1 cells. Briefly: cell-based or functional assay.
The target of experiment [8] is T1, recombinant human PD-L1 protein (Sino …). The experiment can be described thus: competitive ELISA: PD-L1 coated, antibody titrated against PD-1-His, anti-His-HRP. On the procedure:
as §1

T4 sequence (Q9NZQ7 19-290 limits assumed): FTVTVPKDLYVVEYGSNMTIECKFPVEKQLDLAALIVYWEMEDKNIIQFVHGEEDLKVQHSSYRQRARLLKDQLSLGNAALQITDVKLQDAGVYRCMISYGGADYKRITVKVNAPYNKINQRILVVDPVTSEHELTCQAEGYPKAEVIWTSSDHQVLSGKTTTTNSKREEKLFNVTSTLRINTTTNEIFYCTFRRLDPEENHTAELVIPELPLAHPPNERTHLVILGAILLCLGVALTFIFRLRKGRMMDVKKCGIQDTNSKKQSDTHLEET
T1 sequence (Q9NZQ7 19-239 limits assumed): as the sequence (Q9NZQ7 19-239 limits assumed) above

B1: PDL1-130 (antibody, V domains shown)
VH: EVQLQESGPGLAKPSQTLSLTCSVTGYSITSDYWNWIRKFPGNKLEYVGYISYTGSTYYNPSLRSRISITRDTSKNQYYLQLNSVTAEDTATYYCARCPGWLNAMDYWGQGTTVTVSS
VL: DILMTQSPSSLAVSVGEKVTLSCKSSQSLLYSNNQKNSLAWYQQKPGQSPKLLIYWASTGESGVPDRFTGSGSGTDFTLTISSVKAEDLAVYYCQQYYGYPFTFGAGTKLEIK
With B1, the IC50 in experiment [1] amounted to 0.225 µg/mL. Also, the figures for the Kd in experiment [2] and in experiment [3] were 2.18 nM and 1.95 nM, respectively. Besides, the concentration giving a half-maximal response (EC50) in experiment [4] was determined as 0.0646 µg/mL.

B2: PDL1-370 (antibody, V domains shown)
VH: EVQLQESGPGLAKPSQTLSLTCSVTGYSITSDYWNWIRKFPGNKLEYMGYISYTGSTYYNPSLKSRISIARDTSRNQYYLQLNSVTTEDSATYYCARAGGWLLPFAVWGTGTTVTVSS
VL: DIVITQSPSSLAVSVGEKVTMSCKSSQSLLYSSNQQNSLAWYQQKPGQSPILLIYWASTRESGVPDRFTGGGSGTDFTLTISSVRAEDLAVYYCQQYYNYPWTFGGGTKLEIK
On to B2, for which, in experiment [1], the half-maximal inhibitory concentration (IC50) worked out at 0.156 µg/mL. For the same molecule, the values for the Kd in experiment [2] and in experiment [3] were 2.42 nM and 2.18 nM, respectively.

B3: PDL1-413 (antibody, V domains shown)
VH: EVQLQESGPGLAKPSQTLSLTCSVTGYSITSDYWNWIRKFPGNKLEYMGYISYTGSTYYNPSLKSRISIARDTSRNQYYLQLKSVTTEDTATYYCARAGGWLLPFAVWGTGTTVTVSS
VL: DIVMTQSPSSLAVSVGEKVTMSCKSSQSLLYSSNQQNSLAWYQQKPGQSPILLIYWASTRESGVPDRFTGSGSGTDFTLTISSVRAEDLAVYYCQQYYSYPWTFGGGTKLEIK
As for B3, the IC50 in experiment [1] came out at 0.184 µg/mL. Further, the Kd in experiment [2] came out at 2.09 nM; in experiment [3] it was 2.76 nM.

B4: PDL1-50 (antibody, V domains shown)
VH: EVQLQESGGDLVKPGGSLKLSCAASGFTFNTYGMSWVRQTPDKRLEWVATLSSGGSYTYYSESVKGRFTISRDNAKNTLYLQMTSLKSEDTAIYYCARPTADWHLDVWGTGTTVTVSS
VL: DIQMTQSPSSLSASLGGKVTITCKASQDINKYIAWYQHKPGKGPRLLIHYTSTLQPGIPSRFSGSGSGRDYSFSISNLEPEDIATYYCLQHDNLLFTFGSGTKLEIK
As for B4, the IC50 in experiment [1] was 0.294 µg/mL. The Kd was 0.699 nM in experiment [2] and 33.1 nM in experiment [3]. In addition, in experiment [4], a half-maximal response (EC50) required 0.113 µg/mL.

B5: PDL1-90 (antibody, V domains shown)
VH: EVQLQESGGDLVKPGGSLKLSCTASGFTFSTYGMSWVRQTPDKRLEWVATVSSGGSYTYYPDSVKGRFTISRDNAKNTLYLQMSSLKSEDTAIYYCARPTADWHLDVWGTGTTVTVSS
VL: DIQMTQTPSSLSASLGGKVTITCKASQDINRYIAWYQHKPGKGPSLLIHYTSTLQPGIPSRFSGSGSGRDYSFSISNLEPEDIATYYCLQHDNLLFTFGSGTKLEIK
On to B5, for which the IC50 in experiment [1] turned out to be 0.259 µg/mL. The Kd was 0.87 nM in experiment [2] and 62.5 nM in experiment [3]. In experiment [4], it took 0.119 µg/mL to reach a half-maximal effect (EC50).

B6: PDL1-34 (antibody, V domains shown)
VH: EVQLQESGGDLVKPGGSLKLSCAASGFTFNTYGMSWVRQTPDKRLEWVATLSSGGSYTYYSESVKGRFTISRDNAKNTLYLQMNSLKSEDTAIYYCARPTADWHLDVWGTGTTVTVSS
VL: DILMTQSPSSLSASLGGKVTITCNASQDINKYIAWYQHKPGKGPSLLIHYTSTLQPGIPSRFSGSGSGRDYSFSISNLEPEDIATYYCLQHDNLLFTFGSGTKLEIK
Regarding B6, in experiment [1], the half-maximal inhibitory concentration (IC50) turned out to be 0.276 µg/mL. Moreover, the Kd in experiment [2] turned out to be 0.458 nM; in experiment [3], 5.43 nM. This molecule also returned a 50% effective concentration (EC50) in experiment [4] of 0.113 µg/mL.

B7: PDL1-794 (antibody, V domains shown)
VH: EVQLQESGPSLVKPSQTLSLTCSVTGDSITSGYWNWIRKFPGNKLEYMGYISYSGSTYYNPFLKSRISITRDTSKNQYYLQLNSVTTEDTATYYCAKMGDWLAWFAYWGQGTTVTVSS
VL: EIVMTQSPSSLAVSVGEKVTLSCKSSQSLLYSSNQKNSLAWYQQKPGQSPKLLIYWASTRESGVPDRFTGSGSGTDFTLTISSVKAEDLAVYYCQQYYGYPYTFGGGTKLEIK
With B7, the IC50 in experiment [1] worked out at 0.191 µg/mL. In addition, the figures for the Kd in experiment [2] and in experiment [3] were 1.25 nM and 0.883 nM, respectively.

B8: 156-11H (antibody, V domains shown)
VH: QVQLVQSGPELKKPGASVKISCKASGYTFTDYYMNWVRQAPGQSLEWIGDIWPNNGDTSYNQKFKGRVTLTRDTSTSTVYMELRSLRSEDTAVYYCARSVMDYWGQGTLVTVSS
VL: EIVLTQSPALLSLSPGERVTLSCSASSSVNYVYWYQQKPGQAPRPLIYLTFNLASGIPARFSGSGSGTDFTLTISSLEPEDFAVYYCQQWSVNPLTFGGGTKVEIK
The molecule B8 showed a concentration for a half-maximal effect (EC50) in experiment [5] of 0.05 µg/mL. Moreover, in experiment [6], the dissociation constant Kd was 0.336 nM, the koff is 0.000193 s⁻¹ and the association rate constant (kon) is 574000 M⁻¹ s⁻¹. Also, the “EC50 of NFAT luminescence reporter gene (RLU), Jurkat-PD-1 / CHO-PD-L1 co-culture” value (from here on “EC50 … Jurkat-PD-1 / CHO-PD-L1 co-culture”) in experiment [7] was 0.282 µg/mL. The IC50 in experiment [8] was 0.207 µg/mL.

B9: 156-7H (antibody, V domains shown)
VH: QVQLVQSGPELKKPGASVKISCKASGYTFTDYYMNWVRQAPGQSLEWIGDIWPNNGDTSYNQKFKGRVTLTRDTSTSTVYMELRSLRSEDTAVYYCARSVMDTWGQGTLVTVSS
VL: EIVLTQSPALLSLSPGERVTLSCSASSSVNYVYWYQQKPGQAPRPLIYLTFNLASGIPARFSGSGSGTDFTLTISSLEPEDFAVYYCQQWSVNPLTFGGGTKVEIK
In experiment [5], B9 gave an EC50 of 0.0784 µg/mL. Moreover, in experiment [6], the Kd was determined as 0.348 nM, the koff was determined as 0.00018 s⁻¹ and the kon was 518000 M⁻¹ s⁻¹. Further, in experiment [7], the “EC50 … Jurkat-PD-1 / CHO-PD-L1 co-culture” value came out at 0.314 µg/mL. The 50% inhibitory concentration (IC50) in experiment [8] worked out at 0.231 µg/mL.

B10: 156-1H (antibody, V domains shown)
VH: QVQLVQSGPELKKPGASVKISCKASGYTFTDYYMNWVRQAPGQSLEWIGDIWPNNGDTWYNQKFKGRVTLTRDTSTSTVYMELRSLRSEDTAVYYCARSVMDYWGQGTLVTVSS
VL: EIVLTQSPALLSLSPGERVTLSCSASSSVNYVYWYQQKPGQAPRPLIYLTFNLASGIPARFSGSGSGTDFTLTISSLEPEDFAVYYCQQWSVNPLTFGGGTKVEIK
In turn, B10 had an EC50 in experiment [5] of 0.0494 µg/mL. Besides, in experiment [6], the Kd is 0.458 nM, the off-rate (koff) is 0.000227 s⁻¹ and the on-rate (kon) amounted to 494000 M⁻¹ s⁻¹. In addition, in experiment [7], the “EC50 … Jurkat-PD-1 / CHO-PD-L1 co-culture” value was 0.342 µg/mL. Further, in experiment [8], the IC50 stood at 0.197 µg/mL.

B11: PDL1-373 (antibody, V domains shown)
VH: EVQLQESGGGLVKPGGSLKLSCAASGFTFSDYGMHWVRQAPEKGLEWVAYISSGSSTIYYADTVKGRFTISRDNAKNTLFLQMTSLRSEDTAMYYCARRNFGSSYDYWGQGTTVTVSS
VL: EIVMTQSHKFMSTSVGDRVSITCKASQDVDTPVAWYQQKPGQSPRLLIYWASIRHTGVPDRFTGSGSGTDFTLTISNVQSEDLADYFCQQYSSYPLTFGSGTKLEIK
Regarding B11, the IC50 in experiment [1] was determined as 0.12 µg/mL. The Kd in experiment [2] was determined as 2.45 nM; in experiment [3], 3.64 nM. In experiment [4], this molecule came in with an EC50 of 0.0633 µg/mL.
